The values that follow are results of earlier work, collected in paper PMC9780825, “Combining mKate2-Kv1.3 Channel and Atto488-Hongotoxin for the Studies of Peptide Pore Blockers on Living Eukaryotic Cells” (Toxins, 2022).

In general, Kd refers to the equilibrium constant for the complex coming apart.

In data set [1] the target is Kv1.3 (Homo sapiens) (UniProt P22001). Put plainly: two-electrode voltage clamp. A general note: Two-electrode voltage clamp is typically applied to oocytes expressing channels or transporters.
The target in data set [2] is Kv1.3 (Rattus norvegicus) (UniProt P15384). Put plainly: two-electrode voltage clamp.
For a further data set, the target named is Kv1.3 (Mus musculus) (UniProt P16390). Put plainly: whole-cell patch clamp. On the technique in general: In patch-clamp work, channel activity is measured electrically.
Data set [3] addresses Kv1.3 (Homo sapiens) (UniProt P22001). Put plainly: radioligand analysis.
For data set [4] the target is unchanged. Put plainly: Rb+ efflux.

Chain of Kv1.3 (Homo sapiens) (P22001 whole entry): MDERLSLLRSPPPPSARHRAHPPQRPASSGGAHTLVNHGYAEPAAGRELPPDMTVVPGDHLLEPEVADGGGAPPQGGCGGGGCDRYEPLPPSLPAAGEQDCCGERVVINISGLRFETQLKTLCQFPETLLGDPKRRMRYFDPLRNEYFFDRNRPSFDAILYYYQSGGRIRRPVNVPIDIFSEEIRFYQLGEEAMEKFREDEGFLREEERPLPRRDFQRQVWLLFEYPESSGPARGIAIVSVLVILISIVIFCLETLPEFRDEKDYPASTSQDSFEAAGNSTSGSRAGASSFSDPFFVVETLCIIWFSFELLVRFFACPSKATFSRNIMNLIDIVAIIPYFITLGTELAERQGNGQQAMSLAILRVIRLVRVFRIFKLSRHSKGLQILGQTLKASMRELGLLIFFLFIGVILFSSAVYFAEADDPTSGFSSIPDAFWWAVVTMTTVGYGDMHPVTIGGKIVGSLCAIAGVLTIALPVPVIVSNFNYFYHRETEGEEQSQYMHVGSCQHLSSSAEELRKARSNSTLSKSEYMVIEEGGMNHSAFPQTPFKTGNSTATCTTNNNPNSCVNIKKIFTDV
Chain of Kv1.3 (Mus musculus) (P16390 whole entry): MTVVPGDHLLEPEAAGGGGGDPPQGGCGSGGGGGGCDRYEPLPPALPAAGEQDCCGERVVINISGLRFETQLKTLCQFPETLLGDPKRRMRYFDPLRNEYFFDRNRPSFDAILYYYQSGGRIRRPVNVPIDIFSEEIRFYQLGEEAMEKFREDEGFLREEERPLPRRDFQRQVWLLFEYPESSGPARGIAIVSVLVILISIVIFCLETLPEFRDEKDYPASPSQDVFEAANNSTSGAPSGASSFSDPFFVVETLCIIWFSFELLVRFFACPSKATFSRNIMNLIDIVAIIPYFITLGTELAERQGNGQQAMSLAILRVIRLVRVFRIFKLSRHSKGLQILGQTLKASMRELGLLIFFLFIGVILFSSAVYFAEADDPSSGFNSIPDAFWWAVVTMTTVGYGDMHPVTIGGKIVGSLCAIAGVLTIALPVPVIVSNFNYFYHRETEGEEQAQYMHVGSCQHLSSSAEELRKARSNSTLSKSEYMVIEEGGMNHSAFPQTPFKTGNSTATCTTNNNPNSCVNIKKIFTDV
Chain of agitoxin 2 (P46111 whole entry): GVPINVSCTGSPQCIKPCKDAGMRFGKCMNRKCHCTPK
Chain of hongotoxin 1 (P59847 whole entry): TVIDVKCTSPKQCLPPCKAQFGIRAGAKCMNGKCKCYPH
Chain of kaliotoxin 1 (P24662 whole entry): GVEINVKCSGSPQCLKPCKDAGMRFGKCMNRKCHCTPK
Chain of charybdotoxin (P13487 23-59): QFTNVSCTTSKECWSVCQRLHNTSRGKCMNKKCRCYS
Chain of Kv1.3 (Rattus norvegicus) (P15384 whole entry): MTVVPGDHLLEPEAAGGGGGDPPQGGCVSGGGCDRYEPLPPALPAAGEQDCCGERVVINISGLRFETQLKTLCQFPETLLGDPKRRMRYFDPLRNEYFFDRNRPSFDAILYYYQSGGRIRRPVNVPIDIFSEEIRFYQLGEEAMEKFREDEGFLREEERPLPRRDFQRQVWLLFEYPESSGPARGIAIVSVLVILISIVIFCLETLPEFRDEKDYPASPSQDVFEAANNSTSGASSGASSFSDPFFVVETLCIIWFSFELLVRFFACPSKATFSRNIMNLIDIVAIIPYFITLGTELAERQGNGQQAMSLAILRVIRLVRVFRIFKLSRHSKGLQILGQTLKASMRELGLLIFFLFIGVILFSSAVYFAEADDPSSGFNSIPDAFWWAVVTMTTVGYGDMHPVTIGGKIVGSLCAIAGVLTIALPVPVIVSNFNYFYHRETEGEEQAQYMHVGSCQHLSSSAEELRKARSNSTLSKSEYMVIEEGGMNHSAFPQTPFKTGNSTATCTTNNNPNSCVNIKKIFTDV

Take agitoxin 2 (from UniProt P46111): the Kd with Kv1.3 (Homo sapiens) [1] was 0.05 nM; in data set [2] it was 4 pM; in the data set with Kv1.3 (Mus musculus), 0.2 nM.

Consider charybdotoxin (from UniProt P13487), for which the Kd with Kv1.3 (Homo sapiens) [1] is 0.9 nM; with Kv1.3 (Mus musculus), 3 nM.

Regarding hongotoxin 1 (from UniProt P59847), the Kd is 0.24 pM with Kv1.3 (Homo sapiens) [3] and 0.086 nM with Kv1.3 (Homo sapiens) [4].

With kaliotoxin 1 (from UniProt P24662), the Kd is 0.01 nM in the data set with Kv1.3 (Homo sapiens) [1] and 0.65 nM with Kv1.3 (Mus musculus).
